B1: G1/S-specific cyclin-D1 (Mus musculus), P25322 (parent)
chain: MEHQLLCCEVETIRRAYPDTNLLNDRVLRAMLKTEETCAPSVSYFKCVQKEIVPSMRKIVATWMLEVCEEQKCEEEVFPLAMNYLDRFLSLEPLKKSRLQLLGATCMFVASKMKETIPLTAEKLCIYTDNSIRPEELLQMELLLVNKLKWNLAAMTPHDFIEHFLSKMPEADENKQTIRKHAQTFVALCATDVKFISNPPSMVAAGSVVAAMQGLNLGSPNNFLSCYRTTHFLSRVIKCDPDCLRACQEQIEALLESSLRQAQQNVDPKATEEEGEVEEEAGLACTPTDVRDVDI
partner: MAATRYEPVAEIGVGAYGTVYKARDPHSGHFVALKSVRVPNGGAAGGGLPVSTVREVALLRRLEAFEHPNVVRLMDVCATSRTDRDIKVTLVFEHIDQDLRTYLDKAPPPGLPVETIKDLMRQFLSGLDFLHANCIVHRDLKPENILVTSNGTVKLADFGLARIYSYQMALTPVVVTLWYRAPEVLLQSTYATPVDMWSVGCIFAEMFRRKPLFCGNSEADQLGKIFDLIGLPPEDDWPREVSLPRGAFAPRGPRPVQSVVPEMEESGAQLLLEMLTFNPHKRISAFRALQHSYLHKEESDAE

Variants of: B1
Conditions: with cdk4_mouse Cdk4, P30285

effect of a mutation on the interaction	Variant
disrupting interaction	K114A
